Assay [1] deals with EBV LMP1-C (latent membrane protein 1, C-terminal domain, amino acids 186-387) (Epstein-Barr virus) (UniProt P03230). The assay is described as follows: SPR; Biacore T200; LMP1-C and LMP2A-N immobilised on sensor chip CM5 as ligands; affibody molecules injected as analytes in serial dilutions; 1:1 Langmuir fit.
In assay [2] the target is EBV LMP2A-N (latent membrane protein 2A, N-terminal domain, amino acids 1-119) (Epstein-Barr virus) (UniProt P13285). The assay is described as above.
Sequence of UniProt P13285 (P13285 1-119): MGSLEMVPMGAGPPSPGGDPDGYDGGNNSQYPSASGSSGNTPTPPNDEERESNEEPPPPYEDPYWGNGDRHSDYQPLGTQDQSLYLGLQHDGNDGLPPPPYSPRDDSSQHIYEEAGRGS

Sequence of UniProt P03230 (P03230 186-386): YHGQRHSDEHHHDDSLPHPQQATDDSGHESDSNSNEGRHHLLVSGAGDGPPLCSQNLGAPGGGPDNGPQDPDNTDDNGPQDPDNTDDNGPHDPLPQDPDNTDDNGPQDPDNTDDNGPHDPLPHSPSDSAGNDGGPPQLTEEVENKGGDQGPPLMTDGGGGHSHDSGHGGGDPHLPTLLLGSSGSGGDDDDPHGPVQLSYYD

As usually defined, the koff is the rate constant with which the complex falls apart. Low readings indicate a long-lived complex, high ones a short-lived complex. For “SPA-Z scaffold (ZWT) (domain or fragment)”, the koff in assay [1] was 0.00246 s⁻¹; in assay [2], 5.97e-05 s⁻¹.

(Values after PMC10299379.)
